Drawing on publication doi:10.1101/869909, this text covers Kd for one molecule.

The target of the experiment is HSP27 ACD domain (α-crystallin domain), monomeric (human). As to the kind of experiment: ITC. In general terms: ITC needs no label: the signal is the heat of the interaction.
Sequence of HSP27 ACD domain (α-crystallin domain), monomeric (human) (P04792 76-184): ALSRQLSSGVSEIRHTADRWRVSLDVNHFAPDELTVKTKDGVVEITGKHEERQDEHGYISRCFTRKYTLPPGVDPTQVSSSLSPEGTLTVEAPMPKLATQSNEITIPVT

B1: HSP27 IXI peptide 178-…-186 (F185H), without biotin (peptide)
peptide: EITIPVTHE
In the case of B1, the Kd (as a rule, the concentration at which binding is half-saturated) was found to be 14.3 µM.
